Laboratory results as given in patent publication US20070178531A1 (BIOCHECK, published 2007).

T1: Mouse Id2: Histidine (mouse, UniProt P41136 1-134, limits assumed)
T1 construct: Fusion protein made in E. coli from vector pGW07; also called m-Id2: His; not shown: His tag
T1 sequence (looked up): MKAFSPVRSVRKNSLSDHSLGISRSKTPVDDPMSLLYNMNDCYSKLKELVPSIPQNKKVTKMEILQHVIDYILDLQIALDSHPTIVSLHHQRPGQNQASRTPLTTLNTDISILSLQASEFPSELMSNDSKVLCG

T2: Human Id1: Histidine (human, UniProt P41134 1-155, limits assumed)
T2 construct: Fusion protein made in E. coli from vector pGW07; also called h-Id1: his; not shown: His tag
T2 sequence (looked up): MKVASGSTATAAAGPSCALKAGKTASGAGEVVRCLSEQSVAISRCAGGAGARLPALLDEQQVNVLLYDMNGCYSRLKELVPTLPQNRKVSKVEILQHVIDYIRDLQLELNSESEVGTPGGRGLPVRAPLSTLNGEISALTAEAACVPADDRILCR

T3: Mouse Id1: Histidine (mouse, UniProt P20067-2 1-148, limits assumed)
T3 construct: Fusion protein made in E. coli from vector pGW07; also called m-Id1-His; not shown: His tag
T3 sequence (looked up): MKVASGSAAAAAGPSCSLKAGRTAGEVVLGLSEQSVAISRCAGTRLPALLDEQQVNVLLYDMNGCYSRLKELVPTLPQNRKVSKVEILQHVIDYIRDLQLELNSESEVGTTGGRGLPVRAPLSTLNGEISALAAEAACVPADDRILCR

T4: Human Id2: Histidine (human, UniProt Q02363 1-134, limits assumed)
T4 construct: Fusion protein made in E. coli from vector pGW07; also called h-Id2: His; not shown: His tag
T4 sequence (looked up): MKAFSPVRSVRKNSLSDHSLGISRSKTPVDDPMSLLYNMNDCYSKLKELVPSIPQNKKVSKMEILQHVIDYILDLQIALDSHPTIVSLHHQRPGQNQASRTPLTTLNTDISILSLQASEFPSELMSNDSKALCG

T5: Mouse Id3: Histidine (mouse, UniProt P41133 1-119)
T5 construct: Fusion protein made in E. coli from vector pGW07; also called m-Id3: His; Mouse Id3 (coated wells); not shown: His tag
T5 sequence: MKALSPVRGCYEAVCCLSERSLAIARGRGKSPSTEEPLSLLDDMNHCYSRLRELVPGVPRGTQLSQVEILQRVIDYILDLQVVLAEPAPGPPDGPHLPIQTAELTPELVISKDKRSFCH

T6: Human Id3: Histidine (human, UniProt Q02535 1-119 at identity 1.00))
T6 construct: Fusion protein made in E. coli from vector pGW07; also called h-Id3: His; Human Id3 (coated wells); not shown: His tag
T6 chain: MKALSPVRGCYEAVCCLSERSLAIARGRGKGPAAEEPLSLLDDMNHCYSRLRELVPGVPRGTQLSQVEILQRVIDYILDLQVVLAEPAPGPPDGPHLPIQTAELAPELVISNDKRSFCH


Columns and labels:
Mouse Id2: Histidine [1] = target: T1, Mouse Id2: Histidine; test: ELISA, Ab 0.100 µg/ml
Human Id1: Histidine [2] = target: T2, Human Id1: Histidine; test: ELISA, Ab 0.000 µg/ml (blank)
Method: (§1) The rabbit monoclonal anti-human Id3 (clone #3-3) and the rabbit monoclonal anti-mouse/human Id3 (clones #6-1, 16-1, 17-3, and 42-1) produced in Example 6 were tested reactivity against the following antigens: mouse Id1:His, human Id1:His, mouse Id2:His, human Id2:His, mouse Id3:His, human Id3:His, mouse Id4:His, human Id4:His and GST.
(§2) 1. Microtiter wells (prepared in accordance with Example 6) were coated (0.1 μg/well) with mouse Id1:His, human Id1:His, human Id2:His, human Id3:His, and 1.0 μg/well with GST. [0155] 2. Antibody Diluent: 0.25% (w/v) BSA in 0.015M KPO₄ Buffer, 0.85% (w/v) NaCl, 0.1% (w/v) NaN₃, pH=7.40 [0156] 3. Rabbit monoclonal anti-human Id3 (clone #3-3) prepared in Example 7 was diluted to […] with the antibody diluent. […] 4. Rabbit monoclonal anti-mouse/human Id3 (clones #6-1, 16-1, 17-3, 42-1) prepared in Example 7 was diluted to 0.005, 0.010, 0.025, 0.05, 0.10, 0.25, and 0.50 μg/ml with the antibody diluent. […] 5. Conjugate Diluent: 50% (v/v) which consists of an aqueous solution containing Fetal Bovine Serum in 0.05 M Tris, 1% (v/v) Proclin-300, pH 7.6. [0159] 6. Conjugate: Goat anti-rabbit IgG (H+L)-HRP conjugate. [0160] 7. TMB reagent. […] 8. Stop solution (1 N HCI). Method
(§3) 1. Dispense 100 μL of antibody diluent, diluted rabbit monoclonal human Id3, and mouse/human Id3 hybridoma supernatants into appropriate wells. […] 2. Incubate at room temperature with mechanical shaking at 750 rpm for 90 minutes. [0165] 3. Remove the incubation mixture by flicking plate content into an appropriate waste container followed by rinsing the wells 5 times with distilled water. [0166] 4. Strike the wells sharply onto absorbent paper or paper towels to remove all residual water droplets. [0167] 5. Dispense 100 μL of 1:50,000 Goat Anti-Rabbit IgG-HRP Conjugate Reagent into each well. Gently mix for 5 seconds. [0168] 6. Incubate at room temperature with mechanical shaking at 750 rpm for 90 minutes. [0169] 7. Repeat procedures 3 and 4. [0170] 8. Dispense 100 μL of TMB Reagent into each well. Gently mix for 5 seconds. [0171] 9. Incubate at room temperature with mechanical shaking at 750 rpm for 20 minutes. […] 10.

Mouse Id2: Histidine [3] = target: T1, Mouse Id2: Histidine; test: ELISA, Ab 0.000 µg/ml (blank)
Method: as §1, §2, §3

[4] = target: T7, glutathione S-transferase (GST) (UniProt P08515 1-218 = GST); test: ELISA, Ab 0.000 µg/ml (blank)
T7 construct: also called carrier protein GST
Method: as §1, §2, §3

Mouse Id1: Histidine [5] = target: T3, Mouse Id1: Histidine; test: ELISA, Ab 0.000 µg/ml (blank)
Method: as §1, §2, §3

Human Id1: Histidine [6] = target: T2, Human Id1: Histidine; test: ELISA on coated wells, summary
Mouse Id2: Histidine [7] = target: T1, Mouse Id2: Histidine; test: ELISA on coated wells, summary
Human Id2: Histidine = target: T4, Human Id2: Histidine; test: ELISA on coated wells, summary
Mouse Id3: Histidine = target: T5, Mouse Id3: Histidine; test: ELISA on coated wells, summary
Human Id3: Histidine = target: T6, Human Id3: Histidine; test: ELISA on coated wells, summary
Mouse Id1: Histidine [8] = target: T3, Mouse Id1: Histidine; test: ELISA on coated wells, summary

T7 sequence (P08515 whole entry): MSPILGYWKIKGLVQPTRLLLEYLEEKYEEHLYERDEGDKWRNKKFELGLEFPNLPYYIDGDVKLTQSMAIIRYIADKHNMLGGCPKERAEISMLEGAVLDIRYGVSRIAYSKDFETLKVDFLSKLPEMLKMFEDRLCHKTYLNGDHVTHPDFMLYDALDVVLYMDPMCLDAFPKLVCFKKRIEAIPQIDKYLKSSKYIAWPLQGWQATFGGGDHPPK

Row | Binder | A450 (Mouse Id2: Histidine [1]) | A450 (Human Id1: Histidine [2]) | A450 (Mouse Id2: Histidine [3]) | A450 [4] | A450 (Mouse Id1: Histidine [5]) | Cross-reactivity (%) (Human Id1: Histidine [6]) | Cross-reactivity (%) (Mouse Id2: Histidine [7]) | Cross-reactivity (%) (Human Id2: Histidine) | Cross-reactivity (%) (Mouse Id3: Histidine) | Cross-reactivity (%) (Human Id3: Histidine) | Cross-reactivity (%) (Mouse Id1: Histidine [8])
1 | rabbit monoclonal anti-human Id3, clone #BCH-4/#3-3 (antibody, V domains shown, Rabbit IgG from a rabbit hybridoma; also called h Id3 MoAb 3-3) VH: QSVEESGGRLVTPGTPLTLTCTVSGIDLSSYAMSWVRQAPGKGLEWIGVIFPSNNVYYASWAKGRFTISKTSTTVDLKITSPTTEDTATYFCASMGAFDSWGPGTLVTVSS VL: QVLTQTPSPVSAAVGGTVTINCQASQSIYNDNDLAWFQQKPGQPPKLLIYDASTLTSGVPSRFKGSGSGTQFTLTISDLDCDDAATYYCAARYSGNIYGFGGGTEVVVK | 0.05 A450 | 0.046 A450 | 0.048 A450 | 0.044 A450 | 0.047 A450 | – | – | – | – | – | –
2 | rabbit monoclonal anti-mouse/human Id3, clone #BCH-4/#16-1 (antibody, V domains shown, Rabbit IgG from a rabbit hybridoma; also called m/h Id3 MoAb 16-1) VH: QSVEESGGRLVTPGTPLTLTCTASGFSLSSYYIHWVRQAPGKALEWIGYISDGGTTYYASWAKGRFTISKTSSTTVDLKMTSLTTEDTATYFCARQGFNIWGPGTLVTVSL VL: AVLTQTPSPVSAAVGGTVTISCQSSQSVYNNNWLSWFQQKSGQPPKLLIYETSKLESGVPSRFKGSGSGTQFTLTIIDVQCDDAATYYCLGGYWTTSDNNIFGGGTEVVVK | 0.055 A450 | 0.043 A450 | 0.046 A450 | 0.048 A450 | 0.044 A450 | < 1% | < 1% | < 1% | 100% | 100% | < 1%
3 | rabbit monoclonal anti-mouse/human Id3, clone #BCH-4/#6-1 (antibody, V domains shown, Rabbit IgG from a rabbit hybridoma; also called m/h Id3 MoAb 6-1) VH: QSVEESGGRLVTPGTPLTLTCTASGFSLSNVYIHWVRQAPGKGLEWIGYISDGDTARYATWAKGRFTISKTSSTTVNLKMTSLTTEDTATYFCARQGFNIWGPGTLVTVSL VL: AVLTQTPSPVSAAVGGTVSISCQSSQSVWNNNWLSWFQQKPGQPPKLLIYETSKLESGVPSRFKGSGSGTQFTLTISDVQCDDAATYYCLGGYWTTSDNNVFGGGTEVVVK | 0.055 A450 | 0.045 A450 | 0.044 A450 | 0.047 A450 | 0.045 A450 | < 1% | < 1% | < 1% | 100% | 100% | < 1%
4 | rabbit monoclonal anti-mouse/human Id3, clone #BCH-4/#17-3 (antibody, V domains shown, Rabbit IgG from a rabbit hybridoma; also called m/h Id3 MoAb 17-3; BCH-3/#17-3) VH: QSVEESGGRLVTPGTPLTLTCTASGFSLSNVYIHWVRQAPGKGLEWIGYISDGDTARYATWAKGRFTISKTSSTTVNLKMTSLTTEDTATYFCARQGFNIWGPGTLVTVSL VL: AVLTQTPSPVSAAVGGTVSISCQSSQSVWNNNWLSWFQQKPGQPPKLLIYETSKLESGVPSRFKGSGSGTQFTLTISDVQCDDAATYYCLGGYWTTSDNNVFGGGTEVVVK | 0.057 A450 | 0.045 A450 | 0.048 A450 | 0.046 A450 | 0.045 A450 | < 1% | < 1% | < 1% | 100% | 100% | < 1%
5 | rabbit monoclonal anti-mouse/human Id3, clone #BCH-4/#42-1 (antibody, V domains shown, Rabbit IgG from a rabbit hybridoma; also called m/h Id3 MoAb 42-1) VH: QSVEESGGRLVTPGTPLTLTCTASGFSLSSYYIHWVRQAPGKALEWIGYISDGGTTYYASWAKGRFTISKTSSTTVDLKMTSLTTEDTATYFCARQGFNIWGPGTLVTVSL VL: AVLTQTPSPVSAAVGGTVTISCQSSQSVYNNNWLSWFQQKSGQPPKLLIYETSKLESGVPSRFKGSGSGTQFTLTIIDVQCDDAATYYCLGGYWSTSDNNIFGGGTEVVVK | 0.058 A450 | 0.043 A450 | 0.048 A450 | 0.048 A450 | 0.052 A450 | < 1% | < 1% | < 1% | 100% | 100% | < 1%
